# Experimental data taken from publication PMC4452869.
# Assays:
# [1] = target: HIV-1 reverse transcriptase p66 (HIV-1); experiment: SEC; HiLoad 26/60 superdex 200 column, p66 and p66∆PL run separately; 50 mM Tris–HCl, pH 8.0, 200 mM NaCl, 1 mM EDTA; 0.5 ml/min; 4 °C; absorbance at 280 nm; monomer to dimer
# [2] = target: HIV-1 reverse transcriptase p66 (HIV-1); experiment: NMR (1H-13C HMQC of Ile delta-methyl-labelled protein, time-dependent); [^13CH3-Ile]p66 homodimerization; successive 5.5-hr spectra after dimerization conditions were introduced; 25 mM Tris-HCl-d11 in D2O, pD 7.51, 100 mM KCl, 0.02% NaN3; 35 °C; apparent time constants; monomer to dimer
# [3] = target: HIV-1 reverse transcriptase p51 (HIV-1) (UniProt P03366); experiment: NMR (1H-13C HMQC of Ile delta-methyl-labelled protein); 150 µM [^13CH3-Ile]p51 in 25 mM Tris-HCl-d11 in D2O (pD 7.5), 800 mM KCl, 20 mM MgCl2, 0.02% NaN3 (high salt to stabilise the homodimer); monomer to dimer
# [4] = target: HIV-1 reverse transcriptase p66 (HIV-1); experiment: NMR (1H-13C HMQC of Ile delta-methyl-labelled protein, time-dependent); 45 µM [^13CH3-Ile]p66∆PL with 90 µM unlabeled p66 (twofold excess); 25 mM Tris-HCl-d11, pD 7.5, 100 mM KCl, 0.02% NaN3; successive 5.5-hr spectra; 35 °C; apparent time constants
substance,measurement,setting,value
HIV-1 reverse transcriptase p66 (enzyme),dimer/monomer ratio (percent dimer),[1],75 % dimer
same,stoichiometry N,[1],2
same,apparent time constant of dimer formation (Ile382E resonance),[2],2.4 h
HIV-1 reverse transcriptase p51 (from UniProt P03366 600-1039) (natural protein),percent dimer,[3],90%
"p66∆PL, p66 deletion mutant lacking palm loop residues 219–230 (enzyme)",apparent time constant of growth of the dimer resonance (Ile47C),[4],8.8 h
same,apparent time constant of monomer decay (Ile47M resonance),[4],9.1 h
same,apparent time constant of monomer decay (Ile393M resonance),[4],9.3 h
same,mean monomer decay time constant,[4],9 h
same,percent dimerized (limit reached),[4],80 to 90%
same,"percent of the Ile47' intensity in the dimer species, initial spectra",[4],30 to 40%
same,"percent of the Ile47' intensity in the dimer species, limiting value",[4],80%
